{"source": "patent US20220369998A1", "about": "“METHODS FOR DIAGNOSING AND TREATING NEURAL DISEASES” (B. G. NEGEV TECHNOLOGIES AND APPLICATIONS LTD., AT …, priority 2019, published 2022)", "molecules": {"B1": {"name": "albumin (protein, UniProt P02770 25-608, looked up)", "Albumin": "EAHKSEIAHRFKDLGEQHFKGLVLIAFSQYLQKCPYEEHIKLVQEVTDFAKTCVADENAENCDKSIHTLFGDKLCAIPKLRDNYGELADCCAKQEPERNECFLQHKDDNPNLPPFQRPEAEAMCTSFQENPTSFLGHYLHEVARRHPYFYAPELLYYAEKYNEVLTQCCTESDKAACLTPKLDAVKEKALVAAVRQRMKCSSMQRFGERAFKAWAVARMSQRFPNAEFAEITKLATDVTKINKECCHGDLLECADDRAELAKYMCENQATISSKLQACCDKPVLQKSQCLAEIEHDNIPADLPSIAADFVEDKEVCKNYAEAKDVFLGTFLYEYSRRHPDYSVSLLLRLAKKYEATLEKCCAEGDPPACYGTVLAEFQPLVEEPKNLVKTNCELYEKLGEYGFQNAVLVRYTQKAPQVSTPTLVEAARNLGRVGTKCCTLPEAQRLPCVEDYLSAILNRLCVLHEKTPVSEKVTKCCSGSLVERRPCFSALTVDETYVPKEFKAETFTFHSDICTLPDKEKQIKKQTALAELVKHKPKATEDQLKTVMGDFAQFVDKCCKAADKDNCFATEGPNLVARSKEALA", "notes": "serum protein infused ICV (0.8 mM, 28 days) in rats as a model of chronic BBB disruption"}}, "system": "young rats (10-12 weeks of age)", "assay": "Long-term intra-cerebroventricular albumin perfusion in rats, telemetric ECoG recording and PSWE detection", "type": "in vivo, rat", "procedure": "All animal experiments were conducted following an ethical committee approval of the institution in which they were performed, Ben Gurion University of the Negev, Beer-Sheva, Israel or The University of California, Berkeley, Berkeley, Calif., US. Electrodes and wireless transmitters were implanted in the following animal groups: 1) Twelve weeks old (n=5) mice; 2) 18-22 months old (n=12) mice; 3) Nine to 11-weeks-old Wistar male rats implanted with 28 days long intra-cerebroventricular (ICV) perfusion osmotic pumps (N=8, 0.8 mM albumin infusion, N=5 ACSF infusion); 4) Sprague-Dawley rats (n=5, weighing 300 gr) 3 weeks after status epilepticus (SE, see below) and naïve rats (N=3). Groups 1 and 2 electrode coordinates: 0.5 mm rostral or 3.5 mm caudal and 1 mm lateral to bregma, on each side (4 screws, 2 in each hemisphere); Group 3 coordinates: 4.8 mm posterior or 2.7 mm anterior, and 2.2 mm lateral to bregma, on each side (4 screws, 2 in each hemisphere); Group 4 coordinates: 3 mm caudal and 2.5 mm lateral to bregma, on each side (2 screws, 1 in each hemisphere)). Continuous ECoG (sampling rate of 500 Hz) was recorded wirelessly from freely moving animals in their home cage for the described duration of experiments.\nSignal processing was performed offline. Pre-processing included high pass filter (1 Hz), low pass filter (100 Hz) and notch (band-stop) filter (45-55 Hz). EEG human recordings were analyzed as reference to average. Human data were preprocessed by EEGLAB. Animal data were preprocessed using home-developed MATLAB (MathWorks Ltd., MA USA) scripts. To detect PSWE, ECoG or EEG signals were buffered into 2 sec long epochs with 1 sec overlap. Spectral analysis by Fast Fourier Transform (FFT) was applied and the median power frequency (MPF) was extracted for each epoch. PSWE was defined if MPF was <6 Hz for >5 consecutive seconds (see results). Analysis was performed separately for each recorded channel. Power spectrum as in FIG. 1A was calculated for the average channel and for animals ECoG data (e.g., FIG. 2A) over a single channel. FFT was also applied for the entire recording period buffered into 8 seconds epoch with 4 seconds overlap to analyze relative power across the frequency spectrum of 1-20 Hz. Processing was performed by self-developed MATLAB scripts.\nThe inventors next recorded ECoG from young rats (10-12 weeks of age) exposed to ICV albumin (N=8), compared to animals exposed to ACSF (controls, N=5).", "key": {"[1]": {"settings": "ECoG spectral analysis, long-term albumin N=8 vs ACSF N=5"}}, "note": "Entries after “also recorded” stand apart in the source; their conditions may differ.", "data": [{"molecule": "B1", "values": [{"measurement": "relative power in alpha (8-12 Hz) band compared with ACSF-injected animals", "setting": "[1]", "result": "significantly lower"}, {"measurement": "relative power in beta (12-20 Hz) band compared with ACSF-injected animals", "setting": "[1]", "result": "significantly lower"}, {"measurement": "relative power in the delta (1-5 Hz) band compared with ACSF-injected animals", "setting": "[1]", "result": "significantly greater"}, {"measurement": "occurrence per minute of PSWEs, albumin-injected hemisphere compared with the non-injected hemisphere", "setting": "ICV osmotic pump, right lateral ventricle, four weeks after onset of perfusion, ipsilateral vs contralateral, N=8", "result": "significantly higher; also recorded: more common"}, {"measurement": "PSWE duration compared with the ACSF treated group", "setting": "albumin treated group vs ACSF", "result": "significantly longer"}, {"measurement": "PSWE median frequency compared with the ACSF treated group", "setting": "albumin treated group vs ACSF", "result": "slower; also recorded: significantly lower"}, {"measurement": "occurrence per minute of PSWEs, albumin-injected hemisphere compared with ACSF-injected controls", "setting": "four weeks after onset of perfusion, albumin N=8 vs ACSF N=5", "result": "significantly higher; also recorded: more common"}, {"measurement": "higher occurrence per minute of PSWEs detected at one week", "setting": "one week after onset of perfusion", "result": "not at one week"}]}]}
